The target in test [1] is T1, CD137 / 4-1BB (soluble antigen, form not stated) (UniProt Q07011 24-186, limits assumed).
T1 construct: also called biotinylated 4-1BB antigen; CD137 in ELISA
Description: ELISA. In general terms: An ELISA detects its analyte on a solid surface through an enzyme-linked reagent.

Test [2] deals with T2, human 5T4 on cells (human, UniProt Q13641 32-420).
T2 construct: Human 5T4 on transfected cells (CHO-K1, CT26, B16) or endogenous on human tumour lines; the cell line is named under assay; also called trophoblast glycoprotein; TPBG
T2 sequence: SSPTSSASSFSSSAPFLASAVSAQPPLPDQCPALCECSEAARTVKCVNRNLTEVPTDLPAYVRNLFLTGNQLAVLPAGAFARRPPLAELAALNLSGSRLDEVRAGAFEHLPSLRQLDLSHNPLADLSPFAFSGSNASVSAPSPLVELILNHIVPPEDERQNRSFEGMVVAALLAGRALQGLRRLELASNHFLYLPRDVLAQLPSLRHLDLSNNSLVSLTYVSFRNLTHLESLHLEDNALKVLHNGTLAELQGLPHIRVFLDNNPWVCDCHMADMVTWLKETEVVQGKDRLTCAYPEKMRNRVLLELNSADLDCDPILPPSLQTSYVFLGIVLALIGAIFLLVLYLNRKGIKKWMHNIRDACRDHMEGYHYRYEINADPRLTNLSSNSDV
Description: flow cytometry, CHO-hu5T4 cells, streptavidin-PE, normalized MFI of 2 pooled experiments. Here is the method: (§1) Biotinylation: In order to detect ALG.APV-210 binding to 5T4-expressing cell lines, ALG.APV-210 was first biotinylated. The quality of the biotinylated protein and the impact on binding to its targets was assessed using ELISA.
(§2) FACS staining and analysis of 5T4-expressing cell lines: Prior to the FACS staining, all cell lines were characterized for their 5T4 expression levels using a receptor density kit (Quantum Simply Cellular, anti-human IgG, Bangs Laboratories, Inc). Adherent cell lines were cultured according to their supplier's instructions and were harvested from their cell culture flasks using Trypsin/EDTA, counted in R10 medium in a Burker chamber, and diluted in FACS buffer (PBS+0.5% BSA, 0.05% NaN₃) to a concentration of 4×10⁶ cells/mL. 50 μL (0.20×10⁶) of cell solution was added to a 96-well FACS staining plate (Falcon #351190). Cells were incubated for 20 min in 4° C. with 50 μL of the biotinylated ALG.APV-210 (2× final concentration). […] Cells were analysed for ALG.APV-210 binding using flow cytometry (FACSVerse) by gating on single cells. MFI values (secondary antibody only subtracted) from 1 out of 2 independent experiments, as well as normalized data and EC₅₀-values of pooled data from 2 experiments were determined and plotted using GraphPad Prism 7, non-linear regression log (agonist) vs. normalized response-variable slope.

The target in test [3] is T2, human 5T4 on cells. Kind of test: flow cytometry, CT26-hu5T4^high cells, streptavidin-PE, normalized MFI of 2 pooled experiments. Here is the method:
as §1, §2

For a further test, the target named is T3, human CD137 on cells (human, UniProt Q07011 24-255).
T3 construct: Human CD137 on CHO-K1 transfectants, Jurkat/CD137 reporter cells or CD3-stimulated primary human CD8 T cells; cells named under assay; also called 4-1BB; TNFRSF9
Kind of test: flow cytometry, human CD8 T cells gated from CD3-stimulated PBMC, normalized MFI, 2 pooled experiments. How it is done: FACS staining and analysis of CD8 T cells: Following 48 h of incubation with or without CD3, human and cynomolgus PBMC were harvested, pooled, recounted and diluted in FACS buffer (PBS+0.5% BSA, 0.05% NaN₃) to a concentration of 5×10⁶ cells/mL. 50 μL (0.25×10⁶ cells) of cell solution was added to a 96-well FACS staining plate (Falcon #351190). Following 10 min of Fc-blocking in RT using Beriglobin (hIgG, 200 μg/mL), cells were washed in FACS buffer and then incubated for 1 h in 4° C. with 100 μL of the biotinylated ALG.APV-210 or negative control. The antibodies were added in a serial dilution starting either at 5 μg/mL titrating down in a 12 step 1/3 dilution down to 0.0003 μg/mL (exp 1) or 1 μg/mL titrating down in a 12 step 1/2 dilution down to 0.0005 μg/mL (exp 2). […] Cells were analysed for ALG.APV-210 binding using flow cytometry by gating on viable, single cells expressing CD3 and CD8. MFI values (FMO subtracted) from 2 independent experiments as well as normalized pooled data from 2 experiments and EC₅₀-values were determined and plotted using GraphPad Prism 7, non-linear regression log (agonist) vs. normalized response-variable slope, n=6 donors/group.

The target of test [4] is T4, cynomolgus CD137 on cells (cynomolgus macaque, UniProt A9YYE7 24-254).
T4 construct: whole, on cells; also called CHO-K1/cynomolgus CD137; cynomolgus monkey CD137
Description: flow cytometry, cynomolgus CD8 T cells gated from CD3-stimulated PBMC, normalized MFI, 2 pooled experiments. Here is the method: Isolation and stimulation of cynomolgus PBMC: Cynomolgus PBMC were isolated from 20 mL of cynomolgus monkey blood from 3 different donors, obtained from Silabe, France by density gradient centrifugation using Lympholyte-mammal (Cedarlane labs) according to manufacturer's instructions. Non-tissue treated 96 well plates were pre-coated overnight at 4° C. with 3 μg/mL α-monkey CD3, clone FN-18 (Invitrogen #APS0301). The cynomolgus PBMC were then stimulated identically as the human PBMC described above
FACS staining and analysis of CD8 T cells: Following 48 h of incubation with or without CD3, human and cynomolgus PBMC were harvested, pooled, recounted and diluted in FACS buffer (PBS+0.5% BSA, 0.05% NaN₃) to a concentration of 5×10⁶ cells/mL. 50 μL (0.25×10⁶ cells) of cell solution was added to a 96-well FACS staining plate (Falcon #351190). […] Cells were analysed for ALG.APV-210 binding using flow cytometry by gating on viable, single cells expressing CD3 and CD8. MFI values (FMO subtracted) from 2 independent experiments as well as normalized pooled data from 2 experiments and EC₅₀-values were determined and plotted using GraphPad Prism 7, non-linear regression log (agonist) vs. normalized response-variable slope, n=6 donors/group.
(In general: A flow cytometer gives signals particle by particle.)

Usually EC50 stands for the concentration at which the effect is half-maximal. Lower therefore signals higher potency in that assay.

T3 sequence (Q07011 24-255 limits assumed): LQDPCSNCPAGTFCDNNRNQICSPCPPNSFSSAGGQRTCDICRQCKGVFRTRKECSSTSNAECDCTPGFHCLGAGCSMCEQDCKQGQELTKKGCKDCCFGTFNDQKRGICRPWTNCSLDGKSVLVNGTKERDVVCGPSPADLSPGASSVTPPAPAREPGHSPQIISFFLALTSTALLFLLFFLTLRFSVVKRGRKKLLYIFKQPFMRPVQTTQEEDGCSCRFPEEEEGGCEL
T4 sequence (A9YYE7 entry or part of it): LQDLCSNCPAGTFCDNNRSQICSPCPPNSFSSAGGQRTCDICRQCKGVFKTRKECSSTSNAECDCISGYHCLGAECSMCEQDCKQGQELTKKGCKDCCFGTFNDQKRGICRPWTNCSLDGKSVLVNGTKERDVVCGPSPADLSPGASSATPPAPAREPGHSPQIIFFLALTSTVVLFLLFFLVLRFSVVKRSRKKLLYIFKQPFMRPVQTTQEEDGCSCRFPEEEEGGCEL

B1: biotinylated ALG.APV-210 (bispecific antibody)
chain: EVQLLESGGGLVQPGGSLRLSCAASGFTFSHGSMYWVRQAPGKGLEWVSSISSGSGSTYYADSVKGRFTISHDNSKNTLYLQMNSLRAEDTAVYYCARSSYYGSYYSIDYWGQGTLVTVSSGGGGSGGGGSGGGGSGGGGSDIQMTQSPSSLSASVGDRVTITCRASQSISSYLNWYQQKPGKAPKLLIYAASSLQSGVPSRFSGSGSGTDFTLTISSLQPEDFATYYCQQYYDNLPTFGQGTKLEIKEPKSSDKTHTCPPCPAPEAAGAPSVFLFPPKPKDTLMISRTPEVTCVVVDVSHEDPEVKFNWYVDGVEVHNAKTKPREEQYNSTYRVVSVLTVLHQDWLNGKEYKCAVSNKALPAPIEKTISKAKGQPREPQVYTLPPSRDELTKNQVSLTCLVKGFYPSDIAVEWESNGQPENNYKTTPPVLDSDGSFFLYSKLTVDKSRWQQGNVFSCSVMHEALHNHYTQKSLSLSPGSGGGGSGGGGSGGGGSPSEVQLLESGGGLVQPGGSLRLSCAASGFTFSSYAMSWVRQAPGKCLEWVSAISGSGGSTYYADSVKGRFTISRDNSKNTLYLQMNSLRAEDTAVYYCARYYGGYYSAWMDYWGQGTLVTVSSGGGGSGGGGSGGGGSGGGGSDIQMTQSPSSLSASVGDRVTITCRASQSISSFLNWYQQKPGKAPKLLIYAASSLQSGVPSRFSGSGSGTDFTLTISSLQPEDSATYYCQQTYGYLHTFGCGTKLEIKR
modifications: biotinylated (sites not given)
Take B1: the EC50 was 0.6 nM in test [1]; 23 nM with human 5T4 on cells [2]; 20 nM with human 5T4 on cells [3]; 0.235 nM in the test with human CD137 on cells; 0.236 nM in test [4].

Values taken from patent publication US20190382503A1 (published 2019).
